Patent US20230051715A1 (MABWELL THERAPEUTICS, published 2023)
Where a chain is given by its changes, count along the chain named. Names and notes keep the numbering of the source.

T1: human C1s mutant M2 (M277I & K331Q) (human, UniProt P09871 16-688)
T1 construct: The entry is the mutant itself
T1 sequence: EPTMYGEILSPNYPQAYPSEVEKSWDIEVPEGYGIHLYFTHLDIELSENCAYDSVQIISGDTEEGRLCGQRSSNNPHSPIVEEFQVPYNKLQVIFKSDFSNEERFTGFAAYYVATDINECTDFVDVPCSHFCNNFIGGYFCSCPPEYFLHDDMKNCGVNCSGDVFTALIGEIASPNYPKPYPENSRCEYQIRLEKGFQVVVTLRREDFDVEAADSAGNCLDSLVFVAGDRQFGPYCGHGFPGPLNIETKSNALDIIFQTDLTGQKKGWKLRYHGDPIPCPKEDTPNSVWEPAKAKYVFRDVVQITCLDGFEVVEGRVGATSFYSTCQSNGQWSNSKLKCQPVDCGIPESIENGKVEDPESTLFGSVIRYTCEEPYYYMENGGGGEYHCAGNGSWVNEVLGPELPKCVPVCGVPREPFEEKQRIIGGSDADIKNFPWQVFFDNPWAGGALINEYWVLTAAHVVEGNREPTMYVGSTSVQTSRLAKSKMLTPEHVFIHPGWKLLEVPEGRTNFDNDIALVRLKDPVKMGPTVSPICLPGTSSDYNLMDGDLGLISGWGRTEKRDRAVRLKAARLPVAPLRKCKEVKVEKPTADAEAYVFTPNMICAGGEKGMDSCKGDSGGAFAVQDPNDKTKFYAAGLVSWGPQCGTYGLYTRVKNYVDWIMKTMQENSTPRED

T2: human C1s mutant M19 (Q303K) (human, UniProt P09871 16-688)
T2 construct: The entry is the mutant itself
T2 sequence: T1 sequence with I277M, Q303K, Q331K

T3: human C1s mutant M12 (G381E & G382E) (human, UniProt P09871 16-688)
T3 construct: The entry is the mutant itself
T3 sequence: T1 sequence with I277M, Q331K, G381E, G382E

B1: Anti-C1s antibody hz2-7(H1L2) (antibody, V domains shown)
VH: EVQLLESGGGLVQPGGSLRLSCAASGFTFSNYFMNWVRQAPGKGLEWVSEIRLKFTNYATHYADSVKGRFTISRDDSKSTLYLQMNSLRAEDTAVYYCTRDYGSRNGYFDYWGQGTLVTVSS
VL: DIVMTQTPLSLPVTPGEPASISCRSSKSLLHSNGNTFLYWFLQKPGQSPQLLIYRMSNLASGVPDRFSGSGSGTDFTLKISRVEAEDVGVYYCMQHLEYPYTFGGGTKLEIKR
notes: Humanized, human IgG1 / kappa; also called hz2-7(1L2)
B2: Anti-C1s antibody hz2-8 (H1L2 G80A) (antibody, V domains shown)
VH: QVQLVQSGAEVKKPGASVKVSCKASGFNIKEYYMHWVRQAPEQGLEWMGWIDPENADTIYAQKFQGRVTITADTSTNTAYMELSSLRSEDTAVYYCARSRLFFAYWGQGTLVTVSS
VL: DIQMTQSPKSLSASVGDRVTITCRASQDVRTALDWYQQKPGQSPKLLIYSASYRYSGVPSRFSGSGSGTDFTLTISSLQPEDFATYYCQQQYTTPYTFGQGTKLEIKR
notes: Humanized variant with G80A in HC CDR2 (already in the entry), human IgG1 / kappa
B3: Anti-C1s antibody hz2-8 (H1L2 G80A/T82A) (antibody, V domains shown)
VH: B2 VH with T58A
VL: B2 VL
notes: Humanized variant with G80A and T82A in HC CDR2 (already in the entry), human IgG1 / kappa

What was measured:
[1] = molecular target: T1, human C1s mutant M2 (M277I & K331Q); assay: ELISA, plate coated with human C1s mutant M2: M277I, K331Q, OD450nm
Protocol: (§1) ELISA was carried out by first coating 96-well plates with 200 ng/well of full-length or truncated C1s proteins overnight. The next morning, plates were blocked with SuperBlock T20 blocking buffer (Thermo Scientific 37536) for 1 h with gentle shaking. Then, various concentrations of anti-C1s antibodies diluted in SuperBlock T20 blocking buffer were added to the plates and incubated for 1 h with gentle shaking. Mouse IgG (Sigma-Aldrich 15381) and human IgG1 (BioXCell BP0297) were used as negative controls. The plates were washed before incubating with HRP conjugated secondary antibodies diluted in SuperBlock T20 blocking buffer (goat anti-mouse IgG (H+L) cross-adsorbed secondary antibody HRP (Invitrogen G-21040) or goat anti-human IgG antibody, HRP conjugate (Millipore AP309P)) for 1 h with gentle shaking. At last, the plates were washed and color developed with ELISA liquid HRP substrate (Sigma-Aldrich), followed by stopping the reaction with addition of 1M H₂SO₄ in the same volume as the ELISA liquid substrate. Bound antibody was measured by absorbance at OD₄₅₀ₙₘ.
(§2) Binding of anti-C1s antibodies to mutants M1-M20 of human C1s was measured by ELISA as described in Example 4, and results are shown in FIGS. 6B-6U. All anti-C1s humanized variants including hz2-7(H1L2), hz2-8(H1L2 G80A) and hz2-8(H1L2 G80A/T82A) maintained strong binding properties to the majority (16 out of 20) of C1s mutants including M1 (FIG. 6B), M2 (FIG. 6C), M3 (FIG. 6D). M4 (FIG. 6E), M7 (FIG. 6H), M8 (FIG. 6I), M10 (FIG. 6K), M11 (FIG. 6L), M12 (FIG. 6M), M13 (FIG. 6N), M15 (FIG. 6P), M16 (FIG. 6Q), M17 (FIG. 6R), M18 (FIG. 6S), M19 (FIG. 6T) and M20 (FIG. 6U).

[2] = molecular target: T2, human C1s mutant M19 (Q303K); assay: ELISA, plate coated with human C1s mutant M19: Q303K, OD450nm
Protocol: as §1, §2

[3] = molecular target: T3, human C1s mutant M12 (G381E & G382E); assay: ELISA, plate coated with human C1s mutant M12: G381E, G382E, OD450nm
Protocol: as §1, §2

Binder | EC50 [1] [ng/mL] | EC50 [2] [ng/mL] | EC50 [3] [ng/mL]
B1 | 9 | 2 | 5
B2 | 7 | 1 | 5
B3 | 6 | 1 | 5
